Test results taken from article PMC3824023.

Molecular target: microtubules polymerised from bovine brain tubulin (bovine) (UniProt Q6B856)
UniProt Q6B856, sequence (Q6B856 whole entry, looked up): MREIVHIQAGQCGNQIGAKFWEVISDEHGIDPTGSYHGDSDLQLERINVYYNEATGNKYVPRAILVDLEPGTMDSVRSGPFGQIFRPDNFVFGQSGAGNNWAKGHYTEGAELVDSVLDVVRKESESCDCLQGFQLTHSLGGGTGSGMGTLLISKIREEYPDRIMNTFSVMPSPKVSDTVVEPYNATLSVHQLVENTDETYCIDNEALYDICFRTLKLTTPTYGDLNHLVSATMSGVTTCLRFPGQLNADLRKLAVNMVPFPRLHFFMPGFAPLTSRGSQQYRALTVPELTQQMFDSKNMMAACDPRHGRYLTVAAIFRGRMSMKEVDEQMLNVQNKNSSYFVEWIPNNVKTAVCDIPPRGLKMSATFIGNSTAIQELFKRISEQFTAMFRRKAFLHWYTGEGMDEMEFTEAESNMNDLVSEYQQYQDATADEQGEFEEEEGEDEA

K (0.5, MT) of MT-stimulated ATPase, KIF17M-490 alone: 1.3 µM
K (0.5, MT) of MT-stimulated ATPase, KIF17M-490 with EB1 (2x molar ratio): 0.7 µM
K (0.5, MT) of MT-stimulated ATPase, KIF17M-490 with equimolar KIF17-tail: 0.4 µM
B1: KIF17M-490 (C-terminally truncated KIF17, amino acids 1-490: motor, neck and first coiled-coil domains) (domain or fragment)
chain: MASEAVKVVVRCRPMNQRERELRCQPVVTVDCARAQCCIQNPGAADEPPKQFTFDGAYHVDHVTEQIYNEIAYPLVEGVTEGYNGTIFAYGQTGSGKSFTMQGLPDPPSQRGIIPRAFEHVFESVQCAENTKFLVRASYLEIYNEDVRDLLGADTKQKLELKEHPEKGVYVKGLSMHTVHSVAQCEHIMETGWKNRSVGYTLMNKDSSRSHSIFTISIEMSAVDERGKDHLRAGKLNLVDLAGSERQSKTGATGERLKEATKINLSLSALGNVISALVDGRCKHVPYRDSKLTRLLQDSLGGNTKTLMVACLSPADNNYDETLSTLRYANRAKNIRNKPRINEDPKDALLREYQEEIKKLKAILTQQMSPSSLSALLSRQVPPDPVQVEEKLLPQPVIQHDVEAEKQLIREEYEERLARLKADYKAEQESRARLEEDITAMRNSYDVRLSTLEENLRKETEAVLQVGVLYKAEVMSRAEFASSAEYPPAF
